This note sets out measurements from patent US20150344570A1 (published 2015).

The chains are these.
B1: GpH7-B3 variant L235_04F/GpL16-k0 (antibody, human IgG1, kappa)
heavy: not shown
light: DIVMTQSPLSLPVTPGEPASISCQASESLVHSNRNTYLHWYLQKPGQSPQLLIYKVSNRFSGVPDRFSGSGSGTDFTLKISRVEAEDVGVYYCSQNTHVPPTFGQGTKVEIERTVAAPSVFIFPPSDEQLKSGTASVVCLLNNFYPREAKVQWKVDNALQSGNSQESVTEQDSKDSTYSLSSTLTLSKADYEKHKVYACEVTHQGLSSPVTKSFNRGEC
notes: also called Ho Ab L235_04F
B2: GpH7-B3 variant N325_13S/GpL16-k0 (antibody, human IgG1, kappa)
heavy: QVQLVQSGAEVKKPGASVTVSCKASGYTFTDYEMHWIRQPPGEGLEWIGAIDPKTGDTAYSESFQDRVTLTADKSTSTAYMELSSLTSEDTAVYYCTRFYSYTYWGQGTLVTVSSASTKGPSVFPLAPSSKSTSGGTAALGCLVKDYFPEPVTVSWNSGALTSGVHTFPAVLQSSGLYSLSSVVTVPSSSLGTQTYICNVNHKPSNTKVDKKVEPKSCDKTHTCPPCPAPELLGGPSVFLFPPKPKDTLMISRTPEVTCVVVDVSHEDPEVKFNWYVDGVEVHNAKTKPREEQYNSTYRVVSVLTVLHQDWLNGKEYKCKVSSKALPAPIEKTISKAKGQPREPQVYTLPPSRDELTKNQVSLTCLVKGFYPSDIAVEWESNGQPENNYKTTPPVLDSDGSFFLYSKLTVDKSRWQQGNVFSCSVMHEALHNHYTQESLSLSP
light: DIVMTQSPLSLPVTPGEPASISCQASESLVHSNRNTYLHWYLQKPGQSPQLLIYKVSNRFSGVPDRFSGSGSGTDFTLKISRVEAEDVGVYYCSQNTHVPPTFGQGTKVEIERTVAAPSVFIFPPSDEQLKSGTASVVCLLNNFYPREAKVQWKVDNALQSGNSQESVTEQDSKDSTYSLSSTLTLSKADYEKHKVYACEVTHQGLSSPVTKSFNRGEC
notes: also called Ho Ab N325_13S
B3: GpH7-B3 variant N325_06M/GpL16-k0 (antibody, human IgG1, kappa)
heavy: not shown
light: DIVMTQSPLSLPVTPGEPASISCQASESLVHSNRNTYLHWYLQKPGQSPQLLIYKVSNRFSGVPDRFSGSGSGTDFTLKISRVEAEDVGVYYCSQNTHVPPTFGQGTKVEIERTVAAPSVFIFPPSDEQLKSGTASVVCLLNNFYPREAKVQWKVDNALQSGNSQESVTEQDSKDSTYSLSSTLTLSKADYEKHKVYACEVTHQGLSSPVTKSFNRGEC
notes: also called Ho Ab N325_06M
B4: GpH7-B3 variant N325_08L/GpL16-k0 (antibody, human IgG1, kappa)
heavy: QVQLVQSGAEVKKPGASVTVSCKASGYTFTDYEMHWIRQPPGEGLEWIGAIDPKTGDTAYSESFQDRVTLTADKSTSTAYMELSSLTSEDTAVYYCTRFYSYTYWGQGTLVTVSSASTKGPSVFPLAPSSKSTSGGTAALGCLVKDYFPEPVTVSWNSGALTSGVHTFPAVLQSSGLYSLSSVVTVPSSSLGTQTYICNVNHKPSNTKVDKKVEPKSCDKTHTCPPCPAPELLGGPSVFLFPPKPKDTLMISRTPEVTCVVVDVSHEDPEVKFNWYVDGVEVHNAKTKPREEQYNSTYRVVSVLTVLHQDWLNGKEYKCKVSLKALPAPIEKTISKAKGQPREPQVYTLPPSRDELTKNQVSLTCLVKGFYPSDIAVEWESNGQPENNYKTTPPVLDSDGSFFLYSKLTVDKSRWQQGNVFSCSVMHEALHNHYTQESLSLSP
light: DIVMTQSPLSLPVTPGEPASISCQASESLVHSNRNTYLHWYLQKPGQSPQLLIYKVSNRFSGVPDRFSGSGSGTDFTLKISRVEAEDVGVYYCSQNTHVPPTFGQGTKVEIERTVAAPSVFIFPPSDEQLKSGTASVVCLLNNFYPREAKVQWKVDNALQSGNSQESVTEQDSKDSTYSLSSTLTLSKADYEKHKVYACEVTHQGLSSPVTKSFNRGEC
notes: also called Ho Ab N325_08L
B5: GpH7-B3 variant N325_03V/GpL16-k0 (antibody, human IgG1, kappa)
heavy: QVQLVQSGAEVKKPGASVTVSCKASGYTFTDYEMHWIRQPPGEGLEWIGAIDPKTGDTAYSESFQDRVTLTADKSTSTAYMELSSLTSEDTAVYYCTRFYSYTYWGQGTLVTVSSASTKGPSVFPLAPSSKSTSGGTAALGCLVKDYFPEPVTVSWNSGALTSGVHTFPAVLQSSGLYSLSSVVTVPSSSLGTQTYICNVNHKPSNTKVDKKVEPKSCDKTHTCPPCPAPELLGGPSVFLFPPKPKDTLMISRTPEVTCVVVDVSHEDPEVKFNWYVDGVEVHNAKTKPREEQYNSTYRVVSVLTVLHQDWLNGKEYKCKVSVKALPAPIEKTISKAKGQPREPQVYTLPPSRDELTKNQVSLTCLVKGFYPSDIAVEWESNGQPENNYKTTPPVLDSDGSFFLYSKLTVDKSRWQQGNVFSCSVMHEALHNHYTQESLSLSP
light: DIVMTQSPLSLPVTPGEPASISCQASESLVHSNRNTYLHWYLQKPGQSPQLLIYKVSNRFSGVPDRFSGSGSGTDFTLKISRVEAEDVGVYYCSQNTHVPPTFGQGTKVEIERTVAAPSVFIFPPSDEQLKSGTASVVCLLNNFYPREAKVQWKVDNALQSGNSQESVTEQDSKDSTYSLSSTLTLSKADYEKHKVYACEVTHQGLSSPVTKSFNRGEC
notes: also called Ho Ab N325_03V
B6: GpH7-B3 variant L328_02A/GpL16-k0 (antibody, human IgG1, kappa)
heavy: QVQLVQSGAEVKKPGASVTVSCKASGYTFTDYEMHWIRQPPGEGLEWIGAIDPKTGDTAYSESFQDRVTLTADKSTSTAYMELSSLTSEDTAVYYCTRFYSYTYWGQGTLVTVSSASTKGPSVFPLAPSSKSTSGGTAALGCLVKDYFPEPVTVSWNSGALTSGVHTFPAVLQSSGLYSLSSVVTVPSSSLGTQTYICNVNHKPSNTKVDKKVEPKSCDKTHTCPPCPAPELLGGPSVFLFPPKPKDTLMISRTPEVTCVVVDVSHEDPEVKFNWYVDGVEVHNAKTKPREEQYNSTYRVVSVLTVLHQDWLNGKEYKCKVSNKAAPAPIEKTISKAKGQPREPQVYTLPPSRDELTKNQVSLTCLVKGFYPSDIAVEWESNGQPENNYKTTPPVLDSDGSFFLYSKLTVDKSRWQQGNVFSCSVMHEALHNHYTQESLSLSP
light: DIVMTQSPLSLPVTPGEPASISCQASESLVHSNRNTYLHWYLQKPGQSPQLLIYKVSNRFSGVPDRFSGSGSGTDFTLKISRVEAEDVGVYYCSQNTHVPPTFGQGTKVEIERTVAAPSVFIFPPSDEQLKSGTASVVCLLNNFYPREAKVQWKVDNALQSGNSQESVTEQDSKDSTYSLSSTLTLSKADYEKHKVYACEVTHQGLSSPVTKSFNRGEC
notes: also called Ho Ab L328_02A
B7: GpH7-B3 variant L328_09D/GpL16-k0 (antibody, human IgG1, kappa)
heavy: not shown
light: DIVMTQSPLSLPVTPGEPASISCQASESLVHSNRNTYLHWYLQKPGQSPQLLIYKVSNRFSGVPDRFSGSGSGTDFTLKISRVEAEDVGVYYCSQNTHVPPTFGQGTKVEIERTVAAPSVFIFPPSDEQLKSGTASVVCLLNNFYPREAKVQWKVDNALQSGNSQESVTEQDSKDSTYSLSSTLTLSKADYEKHKVYACEVTHQGLSSPVTKSFNRGEC
notes: also called Ho Ab L328_09D
B8: GpH7-B3 variant N325_07I/GpL16-k0 (antibody, human IgG1, kappa)
heavy: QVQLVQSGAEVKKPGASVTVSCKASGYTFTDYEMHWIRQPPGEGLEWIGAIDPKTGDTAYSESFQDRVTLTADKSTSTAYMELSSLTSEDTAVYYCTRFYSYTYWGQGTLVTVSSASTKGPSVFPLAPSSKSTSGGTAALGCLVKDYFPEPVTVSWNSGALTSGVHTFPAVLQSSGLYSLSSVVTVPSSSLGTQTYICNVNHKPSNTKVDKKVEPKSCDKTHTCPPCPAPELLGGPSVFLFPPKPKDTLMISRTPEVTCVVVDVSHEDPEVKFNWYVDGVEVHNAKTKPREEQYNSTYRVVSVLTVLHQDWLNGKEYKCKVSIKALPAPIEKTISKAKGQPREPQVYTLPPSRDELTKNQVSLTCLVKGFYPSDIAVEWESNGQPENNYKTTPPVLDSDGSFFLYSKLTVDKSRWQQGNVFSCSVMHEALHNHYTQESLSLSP
light: DIVMTQSPLSLPVTPGEPASISCQASESLVHSNRNTYLHWYLQKPGQSPQLLIYKVSNRFSGVPDRFSGSGSGTDFTLKISRVEAEDVGVYYCSQNTHVPPTFGQGTKVEIERTVAAPSVFIFPPSDEQLKSGTASVVCLLNNFYPREAKVQWKVDNALQSGNSQESVTEQDSKDSTYSLSSTLTLSKADYEKHKVYACEVTHQGLSSPVTKSFNRGEC
notes: also called Ho Ab N325_07I
B9: GpH7-B3 variant L328_14T/GpL16-k0 (antibody, human IgG1, kappa)
heavy: not shown
light: DIVMTQSPLSLPVTPGEPASISCQASESLVHSNRNTYLHWYLQKPGQSPQLLIYKVSNRFSGVPDRFSGSGSGTDFTLKISRVEAEDVGVYYCSQNTHVPPTFGQGTKVEIERTVAAPSVFIFPPSDEQLKSGTASVVCLLNNFYPREAKVQWKVDNALQSGNSQESVTEQDSKDSTYSLSSTLTLSKADYEKHKVYACEVTHQGLSSPVTKSFNRGEC
notes: also called Ho Ab L328_14T
B10: GpH7-B3 variant N325_10E/GpL16-k0 (antibody, human IgG1, kappa)
heavy: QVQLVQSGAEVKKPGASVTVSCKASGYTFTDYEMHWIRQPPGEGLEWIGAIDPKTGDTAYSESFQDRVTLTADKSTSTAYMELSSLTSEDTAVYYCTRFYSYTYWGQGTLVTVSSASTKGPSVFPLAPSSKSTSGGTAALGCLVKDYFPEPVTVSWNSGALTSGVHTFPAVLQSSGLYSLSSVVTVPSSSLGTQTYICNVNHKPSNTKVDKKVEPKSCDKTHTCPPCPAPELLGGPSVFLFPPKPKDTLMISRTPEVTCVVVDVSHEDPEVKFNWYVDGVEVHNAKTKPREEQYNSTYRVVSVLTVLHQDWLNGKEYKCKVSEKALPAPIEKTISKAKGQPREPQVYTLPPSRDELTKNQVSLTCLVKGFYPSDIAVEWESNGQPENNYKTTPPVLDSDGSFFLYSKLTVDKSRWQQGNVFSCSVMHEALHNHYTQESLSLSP
light: DIVMTQSPLSLPVTPGEPASISCQASESLVHSNRNTYLHWYLQKPGQSPQLLIYKVSNRFSGVPDRFSGSGSGTDFTLKISRVEAEDVGVYYCSQNTHVPPTFGQGTKVEIERTVAAPSVFIFPPSDEQLKSGTASVVCLLNNFYPREAKVQWKVDNALQSGNSQESVTEQDSKDSTYSLSSTLTLSKADYEKHKVYACEVTHQGLSSPVTKSFNRGEC
notes: also called Ho Ab N325_10E
B11: GpH7-B3 variant L235_20W/GpL16-k0 (antibody, human IgG1, kappa)
heavy: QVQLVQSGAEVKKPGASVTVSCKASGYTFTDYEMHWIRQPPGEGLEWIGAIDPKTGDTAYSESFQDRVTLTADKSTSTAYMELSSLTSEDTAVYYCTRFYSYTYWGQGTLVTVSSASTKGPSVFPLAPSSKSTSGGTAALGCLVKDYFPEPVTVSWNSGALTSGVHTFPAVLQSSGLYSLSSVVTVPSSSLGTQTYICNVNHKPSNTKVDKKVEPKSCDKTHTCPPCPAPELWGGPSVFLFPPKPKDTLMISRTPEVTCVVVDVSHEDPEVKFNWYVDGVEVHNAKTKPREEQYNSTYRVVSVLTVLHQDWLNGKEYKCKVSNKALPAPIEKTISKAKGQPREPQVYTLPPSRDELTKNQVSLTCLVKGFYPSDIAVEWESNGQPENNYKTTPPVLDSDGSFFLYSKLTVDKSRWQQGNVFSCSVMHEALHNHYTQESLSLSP
light: DIVMTQSPLSLPVTPGEPASISCQASESLVHSNRNTYLHWYLQKPGQSPQLLIYKVSNRFSGVPDRFSGSGSGTDFTLKISRVEAEDVGVYYCSQNTHVPPTFGQGTKVEIERTVAAPSVFIFPPSDEQLKSGTASVVCLLNNFYPREAKVQWKVDNALQSGNSQESVTEQDSKDSTYSLSSTLTLSKADYEKHKVYACEVTHQGLSSPVTKSFNRGEC
notes: also called Ho Ab L235_20W
B12: GpH7-B3 variant L235_09D/GpL16-k0 (antibody, human IgG1, kappa)
heavy: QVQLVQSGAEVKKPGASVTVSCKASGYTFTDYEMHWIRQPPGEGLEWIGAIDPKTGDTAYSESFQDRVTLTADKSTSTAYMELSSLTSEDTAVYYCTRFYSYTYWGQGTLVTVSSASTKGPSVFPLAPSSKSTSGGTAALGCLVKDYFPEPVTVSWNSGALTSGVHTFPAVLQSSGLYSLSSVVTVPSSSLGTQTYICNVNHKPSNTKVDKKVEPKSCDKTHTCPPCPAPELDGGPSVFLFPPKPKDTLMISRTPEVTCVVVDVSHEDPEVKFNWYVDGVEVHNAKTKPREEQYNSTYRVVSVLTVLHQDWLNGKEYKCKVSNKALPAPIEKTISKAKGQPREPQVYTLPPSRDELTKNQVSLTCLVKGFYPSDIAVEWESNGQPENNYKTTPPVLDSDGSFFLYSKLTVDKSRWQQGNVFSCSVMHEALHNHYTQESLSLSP
light: DIVMTQSPLSLPVTPGEPASISCQASESLVHSNRNTYLHWYLQKPGQSPQLLIYKVSNRFSGVPDRFSGSGSGTDFTLKISRVEAEDVGVYYCSQNTHVPPTFGQGTKVEIERTVAAPSVFIFPPSDEQLKSGTASVVCLLNNFYPREAKVQWKVDNALQSGNSQESVTEQDSKDSTYSLSSTLTLSKADYEKHKVYACEVTHQGLSSPVTKSFNRGEC
notes: also called Ho Ab L235_09D
B13: GpH7-B3 variant L328_10E/GpL16-k0 (antibody, human IgG1, kappa)
heavy: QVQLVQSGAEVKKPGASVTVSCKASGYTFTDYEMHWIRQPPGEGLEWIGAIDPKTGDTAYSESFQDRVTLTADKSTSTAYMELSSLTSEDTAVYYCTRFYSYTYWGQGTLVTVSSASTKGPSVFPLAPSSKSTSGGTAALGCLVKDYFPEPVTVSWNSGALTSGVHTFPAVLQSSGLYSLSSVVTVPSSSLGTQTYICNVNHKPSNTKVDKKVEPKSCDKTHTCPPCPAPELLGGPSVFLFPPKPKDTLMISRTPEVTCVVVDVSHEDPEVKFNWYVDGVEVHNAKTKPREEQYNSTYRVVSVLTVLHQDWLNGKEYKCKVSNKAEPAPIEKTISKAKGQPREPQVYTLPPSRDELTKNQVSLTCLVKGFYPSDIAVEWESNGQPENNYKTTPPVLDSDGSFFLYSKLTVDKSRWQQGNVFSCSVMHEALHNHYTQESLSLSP
light: DIVMTQSPLSLPVTPGEPASISCQASESLVHSNRNTYLHWYLQKPGQSPQLLIYKVSNRFSGVPDRFSGSGSGTDFTLKISRVEAEDVGVYYCSQNTHVPPTFGQGTKVEIERTVAAPSVFIFPPSDEQLKSGTASVVCLLNNFYPREAKVQWKVDNALQSGNSQESVTEQDSKDSTYSLSSTLTLSKADYEKHKVYACEVTHQGLSSPVTKSFNRGEC
notes: also called Ho Ab L328_10E
B14: GpH7-B3 variant L328_13S/GpL16-k0 (antibody, human IgG1, kappa)
heavy: not shown
light: DIVMTQSPLSLPVTPGEPASISCQASESLVHSNRNTYLHWYLQKPGQSPQLLIYKVSNRFSGVPDRFSGSGSGTDFTLKISRVEAEDVGVYYCSQNTHVPPTFGQGTKVEIERTVAAPSVFIFPPSDEQLKSGTASVVCLLNNFYPREAKVQWKVDNALQSGNSQESVTEQDSKDSTYSLSSTLTLSKADYEKHKVYACEVTHQGLSSPVTKSFNRGEC
notes: also called Ho Ab L328_13S
B15: GpH7-B3 variant L235_15Y/GpL16-k0 (antibody, human IgG1, kappa)
heavy: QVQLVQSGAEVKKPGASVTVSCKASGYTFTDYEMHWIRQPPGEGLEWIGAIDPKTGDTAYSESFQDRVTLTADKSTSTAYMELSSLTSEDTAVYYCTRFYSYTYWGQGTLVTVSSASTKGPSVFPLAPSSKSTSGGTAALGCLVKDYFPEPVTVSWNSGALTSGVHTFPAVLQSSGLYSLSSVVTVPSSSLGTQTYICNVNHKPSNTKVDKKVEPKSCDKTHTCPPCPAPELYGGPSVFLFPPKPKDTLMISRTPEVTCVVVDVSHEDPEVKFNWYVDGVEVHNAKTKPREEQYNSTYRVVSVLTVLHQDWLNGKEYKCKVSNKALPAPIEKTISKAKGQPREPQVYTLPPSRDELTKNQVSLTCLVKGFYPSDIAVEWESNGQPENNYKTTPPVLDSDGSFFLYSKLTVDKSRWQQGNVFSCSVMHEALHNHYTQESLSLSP
light: DIVMTQSPLSLPVTPGEPASISCQASESLVHSNRNTYLHWYLQKPGQSPQLLIYKVSNRFSGVPDRFSGSGSGTDFTLKISRVEAEDVGVYYCSQNTHVPPTFGQGTKVEIERTVAAPSVFIFPPSDEQLKSGTASVVCLLNNFYPREAKVQWKVDNALQSGNSQESVTEQDSKDSTYSLSSTLTLSKADYEKHKVYACEVTHQGLSSPVTKSFNRGEC
notes: also called Ho Ab L235_15Y
B16: GpH7-B3 variant N325_09D/GpL16-k0 (antibody, human IgG1, kappa)
heavy: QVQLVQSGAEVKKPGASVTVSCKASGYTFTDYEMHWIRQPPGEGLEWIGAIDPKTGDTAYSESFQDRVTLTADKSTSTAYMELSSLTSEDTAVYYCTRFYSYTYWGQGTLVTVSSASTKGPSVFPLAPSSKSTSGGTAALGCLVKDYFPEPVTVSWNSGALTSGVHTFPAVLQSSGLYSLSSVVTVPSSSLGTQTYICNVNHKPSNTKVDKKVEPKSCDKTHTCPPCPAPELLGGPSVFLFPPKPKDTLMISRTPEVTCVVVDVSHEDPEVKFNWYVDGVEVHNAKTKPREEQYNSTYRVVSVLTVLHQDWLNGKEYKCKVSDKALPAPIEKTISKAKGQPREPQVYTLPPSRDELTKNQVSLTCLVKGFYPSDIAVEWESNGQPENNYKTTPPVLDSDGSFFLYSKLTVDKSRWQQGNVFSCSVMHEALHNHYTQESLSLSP
light: DIVMTQSPLSLPVTPGEPASISCQASESLVHSNRNTYLHWYLQKPGQSPQLLIYKVSNRFSGVPDRFSGSGSGTDFTLKISRVEAEDVGVYYCSQNTHVPPTFGQGTKVEIERTVAAPSVFIFPPSDEQLKSGTASVVCLLNNFYPREAKVQWKVDNALQSGNSQESVTEQDSKDSTYSLSSTLTLSKADYEKHKVYACEVTHQGLSSPVTKSFNRGEC
notes: also called Ho Ab N325_09D

The experiment deals with T1, FcγRIIa R (human, UniProt P12318 34-217).
T1 construct: extracellular domain; also called FcgRIIa R type; 2aR
T1 sequence (looked up): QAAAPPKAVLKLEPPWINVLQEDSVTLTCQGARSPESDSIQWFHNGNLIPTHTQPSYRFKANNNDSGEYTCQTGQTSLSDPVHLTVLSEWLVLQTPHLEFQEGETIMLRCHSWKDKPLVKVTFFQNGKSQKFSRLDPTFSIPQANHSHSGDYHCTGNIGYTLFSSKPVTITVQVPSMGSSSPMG
Nature of the experiment: SPR (Biacore), captured antibody, FcγR as analyte; relative binding activity. For orientation: Surface plasmon resonance follows binding to a sensor surface in real time, without labels.
Regarding B1, the Ho/Con_2aR was 98.9 % (GpH7-B3/GpL16-k0 = 100). As to B2, the Ho/Con_2aR was 126 % (GpH7-B3/GpL16-k0 = 100).

Consider B3, for which the Ho/Con_2aR is 124 % (GpH7-B3/GpL16-k0 = 100). For B4 the value was 95 % (GpH7-B3/GpL16-k0 = 100); for B5, 37.8 % (GpH7-B3/GpL16-k0 = 100); for B6, 97 % (GpH7-B3/GpL16-k0 = 100). Under B7 stands 68.8 % (GpH7-B3/GpL16-k0 = 100); under B8, 77 % (GpH7-B3/GpL16-k0 = 100); under B9, 118 % (GpH7-B3/GpL16-k0 = 100). Regarding B10, the Ho/Con_2aR was 49.9 % (GpH7-B3/GpL16-k0 = 100). Under B11 stands 114 % (GpH7-B3/GpL16-k0 = 100); under B12, 73 % (GpH7-B3/GpL16-k0 = 100). For B13 the value was 48.1 % (GpH7-B3/GpL16-k0 = 100); for B14, 108 % (GpH7-B3/GpL16-k0 = 100). Under B15 stands 111 % (GpH7-B3/GpL16-k0 = 100); under B16, 74.8 % (GpH7-B3/GpL16-k0 = 100).
